From patent publication US20220127313A1
Non-standard residues stand in square brackets, D forms with d. No end group written: not given here. pS = N[C@@H](COP(=O)(O)O)C(=O)O

Columns and labels:
Test in all cases: cell-based or functional assay
[1] = molecular target: p38 MAPK γ isoform, P53778
[2] = molecular target: p38 MAPK β isoform, Q15759
[3] = molecular target: p38 MAPK δ isoform, O15264
Sequence of p38 MAPK δ isoform, O15264 (O15264 whole entry, stated change not applied, canonical isoform): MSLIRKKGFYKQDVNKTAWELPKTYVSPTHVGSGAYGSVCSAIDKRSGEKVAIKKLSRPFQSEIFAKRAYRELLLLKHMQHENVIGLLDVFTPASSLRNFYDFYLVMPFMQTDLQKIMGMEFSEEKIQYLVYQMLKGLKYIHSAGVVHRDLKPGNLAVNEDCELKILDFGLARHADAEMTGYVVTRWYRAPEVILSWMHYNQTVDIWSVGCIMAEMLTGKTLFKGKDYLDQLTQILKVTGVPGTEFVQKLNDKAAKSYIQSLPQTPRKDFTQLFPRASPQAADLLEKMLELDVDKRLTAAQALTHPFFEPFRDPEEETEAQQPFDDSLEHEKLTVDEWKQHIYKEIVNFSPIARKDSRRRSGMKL

Sequence of p38 MAPK β isoform, Q15759 (Q15759 whole entry, canonical isoform): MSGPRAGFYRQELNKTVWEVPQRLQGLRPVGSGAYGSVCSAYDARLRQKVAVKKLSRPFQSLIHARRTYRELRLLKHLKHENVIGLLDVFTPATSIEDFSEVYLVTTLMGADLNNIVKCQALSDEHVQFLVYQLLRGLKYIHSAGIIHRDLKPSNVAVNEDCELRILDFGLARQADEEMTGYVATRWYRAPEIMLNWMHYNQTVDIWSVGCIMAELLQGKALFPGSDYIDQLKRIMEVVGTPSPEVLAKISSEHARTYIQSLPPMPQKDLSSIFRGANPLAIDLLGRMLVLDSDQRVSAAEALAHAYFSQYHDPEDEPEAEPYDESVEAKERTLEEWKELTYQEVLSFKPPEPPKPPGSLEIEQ
Sequence of p38 MAPK γ isoform, P53778 (P53778 whole entry, canonical isoform): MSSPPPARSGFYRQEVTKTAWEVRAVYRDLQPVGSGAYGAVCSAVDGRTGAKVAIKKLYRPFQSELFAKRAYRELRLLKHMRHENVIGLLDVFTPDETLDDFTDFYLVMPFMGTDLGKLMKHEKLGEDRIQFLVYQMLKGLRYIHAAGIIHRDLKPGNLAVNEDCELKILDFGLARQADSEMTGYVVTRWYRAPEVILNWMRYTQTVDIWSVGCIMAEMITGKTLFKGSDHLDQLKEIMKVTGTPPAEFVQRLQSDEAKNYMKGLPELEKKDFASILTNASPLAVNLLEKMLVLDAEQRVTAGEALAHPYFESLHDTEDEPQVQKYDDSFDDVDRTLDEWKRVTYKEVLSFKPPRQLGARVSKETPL

B1: NiPp polypeptide (Niban phosphopeptide), …(pS)AILPG (peptide)
peptide: YARAAARQARASPAARRA[pS]AILPG
[1]
  % inhibition in kinase profiling screen, NiPp at 100 µM: 3%
[2]
  % inhibition in kinase profiling screen, NiPp at 100 µM: 5%
[3]
  % inhibition in kinase profiling screen, NiPp at 100 µM: 3%
